Source: US5716934A, “Eck receptor ligands” (Amgen Inc., priority 1995, dated 1998)

Columns and labels:
[1] = tested on: extracellular domain of the kit receptor; assay: BIAcore binding to surfaces activated with kit receptor extracellular domain
Source text: SDS-PAGE analysis of the fractions from this column confirmed that EBP was co-eluted with the receptor binding activity.

EGF receptor = EGF receptor phosphorylation in LIM 2405 cells treated with EBP; format: cell-based, human
[2] = tested on: immobilized soluble extracellular domain of eck; assay: Stability of eck binding activity of formulated EBP (BIAcore); format: physicochemical, human
Experimental: FIG. 7. Binding of CHO-derived EBP in various detergent formulations to immobilized eck receptor as measured by BIAcore. Purified EBP was diluted to 100 μg/ml in PBS in the presence or absence of detergent and incubated for 2 hrs. at 3° C. Protein samples were diluted to the concentrations indicated in the figure and tested for eck receptor binding.
Measuring the ability of EBP to bind to the immobilized soluble extracellular domain of eck using BIAcore, it was determined that dilute solutions of purified EBP rapidly lost the ability to bind to the eck receptor unless formulated with a protective agent such as a detergent. Recombinant CHO EBP diluted into PBS to 100 μg/ml and incubated for 2 hours at […] lost approximately 50% of its eck binding activity. […] (see FIG. 7).

[3] = tested on: bone marrow suspensions from BDF mice; assay: Murine bone marrow colony formation (hematopoiesis); format: cell-based, mouse
Experimental: Unfractionated bone marrow suspensions from BDF mice were plated into serum free culture medium (Iscove's modified Dulbecco's medium) in 0.3% agarose and incubated at 37° C., 5% CO2 for ten days at a cell concentration of 1×10^5 /ml in 96 well plates. Total volume per […] was 50 μl . EBP and other growth factors were added in the amounts indicated and colonies were scored at the tenth day of incubation.

colon crypt cells = assay: Colon crypt assay; format: cell-based, mouse; details: bFGF 60 ng/ml, EBP 500 ng/ml
Experimental: Colons from five (BDF) mice were removed and crypts isolated using a non enzymatic (EDTA) extraction method. Briefly, colons are washed and allowed to sit for 20 min. in a solution of PBS containing 0.04% sodium hypochlorite. Crypts are isolated by incubating the tissue for 1 hour at 37° C. in a solution of PBS containing 3 mM EDTA and 0.5 mM DTT. Crypts are then subjected to pancreatin digestion (0.2% in PBS) for 90 min. at 37° C. in order to obtain a single cell suspension. Cells are washed in PBS, counted and viability determined by trypan blue exclusion (85% in this experiment). Cells are then plated in a top layer of 0.37% Sigma low melt agar onto a bottom layer of 0.5% agar. The RPMI media used in the agar includes the presence of 1×ITS (insulin, transferrin, and selenium, Gibco). Incubations were done in the presence of 1% fetal calf serum (FCS) and the indicated growth factors at the following concentration: TGFα, 50 ng/ml; bFGF, 60 ng/ml; EBP, 500 ng/ml. Control incubations lacked growth factors and/or FCS. Each of the various culture conditions was performed in triplicate and scored every several days.

hepatocytes = assay: 3H-thymidine incorporation in primary hepatocyte cultures; format: cell-based; details: EBP at 20 ng/ml, aFGF at 20 ng/ml, 24 to 48 hours, serum-free
Experimental: Hepatocytes were isolated by the in situ two step collagenase perfusion technique described by Seglen (Methods in Toxicol., Vol. 1A, 231-243 (1993). Briefly, the perfused livers were dispersed in ice cold Hank's buffer, filtered through a nylon mesh, and hepatocytes separated from nonparenchymal cells by repeated centrifugation at 50×g. The hepatocytes were determined to be greater than 85% viable by trypan blue exclusion. The hepatocytes were cultured on plates coated with rat tail collagen and plated in Williams E containing 5% FCS, 10^-7 M insulin, 10^-8 M dexamethason, glutamine, penicillin and streptomycin.
Cells were allowed to attach for 3-4 hours in serum containing media and then transferred to serum-free media. The appropriate concentrations of EBP or other growth factors were added and the cells were incubated for 24 to 48 hours in the presence of ^3 H-thymidine. After incubation, the extent of ^3 H-thymidine incorporation into cells was determined. The growth factors tested were keratinocyte growth factor (KGF) at 10 ng/ml, acidic FGF (aFGF) at 20 ng/ml, and EBP at 20 ng/ml. […] In this particular experiment, the serum free value was unusually high (about 3-fold).

B1: EBP: eck receptor binding protein, polypeptide ligand of the eck receptor (B61 gene product, SEQ. ID. NO. 1); source form not specified at place (protein)
chain: MEFLWAPLLGLCCSLAAADRHTVFWNSSNPKFRNEDYTIHVQLNDYVDIICPHYEDHSVADAAMEQYILYLVEHEEYQLCQPQSKDQVRWQCNRPSAKHGPEKLSEKFQRFTPFTLGKEFKEGHSYYYISKPIHQHEDRCLRLKVTVSGKITHSPQAHVNPQEKRLAADDPEVRVLHSIGHSAAPRLFPLAWTVLLLPLLLLQTP
- binding to BIAcore surfaces activated with the extracellular domain of the kit receptor [1]: did not bind
- phosphorylation of the EGF receptor (EGF receptor): does not result in spurious phosphorylation
- loss of eck binding activity when formulated in detergent ([2]; 1 mM CHAPS, 0.1% NP-40, 0.1% tween 20, 0.1% triton-X 100, or 0.1% tween 80): loss of activity can be avoided
- stability of eck binding activity ([2]; 2-5 mg/ml in detergent solutions, 3° C.): stable for at least one week
- stability of eck binding activity ([2]; 10-500 μg/ml, stored at -20° C. or multiple freeze thaw cycles): will lose activity
- loss of eck binding activity when incubated with protein carriers ([2]; diluted EBP with carriers such as fetal calf serum): can also be avoided
- stimulation of CFU-M or BFU-E/CFU-E ([3]; EBP alone): no stimulation
- potentiation of murine IL-3 dependent CFU-C formation compared to IL-3 alone ([3]; EBP at 1 μg/ml with murine IL-3, colonies scored day 10): about 2 fold
- colon crypt cell clusters, overall observation (colon crypt cells): occasional large clusters
- amount of 3H-thymidine incorporation stimulated (hepatocytes): about the same as that induced by aFGF
